Read-outs that look alike come from different tables or passages of the source.

The target in assay [1] is ScVLa capsid protein Cap, full size (697 amino acids) (ScVLa virus of Saccharomyces cerevisiae).
For assay [2], the target named is ScVL1 capsid protein Cap, full size (680 amino acids) (ScVL1 virus of Saccharomyces cerevisiae).
Assay [3] has as its target T1, ScVL1 capsid protein Cap, full size (680 amino acids) (ScVL1 virus of Saccharomyces cerevisiae).
T1 chain: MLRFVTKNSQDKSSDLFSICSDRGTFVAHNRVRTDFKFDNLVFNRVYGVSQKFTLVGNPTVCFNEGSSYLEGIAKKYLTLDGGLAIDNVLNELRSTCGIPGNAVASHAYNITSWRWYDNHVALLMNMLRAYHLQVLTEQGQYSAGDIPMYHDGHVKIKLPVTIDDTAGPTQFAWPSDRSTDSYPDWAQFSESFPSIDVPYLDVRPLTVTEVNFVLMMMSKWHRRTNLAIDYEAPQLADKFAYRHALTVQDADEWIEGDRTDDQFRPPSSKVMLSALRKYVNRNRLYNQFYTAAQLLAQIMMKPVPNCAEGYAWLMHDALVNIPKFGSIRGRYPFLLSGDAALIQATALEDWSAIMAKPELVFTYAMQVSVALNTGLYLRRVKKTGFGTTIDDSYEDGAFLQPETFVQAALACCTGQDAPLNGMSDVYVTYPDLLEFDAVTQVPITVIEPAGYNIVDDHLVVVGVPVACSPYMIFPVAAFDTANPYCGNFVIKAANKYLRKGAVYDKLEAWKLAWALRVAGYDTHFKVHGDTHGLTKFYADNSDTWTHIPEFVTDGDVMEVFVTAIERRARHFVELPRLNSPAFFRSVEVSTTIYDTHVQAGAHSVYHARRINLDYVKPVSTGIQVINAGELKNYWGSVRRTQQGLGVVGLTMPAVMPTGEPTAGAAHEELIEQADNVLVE
In words: cell-based or functional assay.

Molecule “La Cap N-terminal fragment of pGLa1d3 (aa 1-443)” came in with a Curing (%) of ScVLa in assay [1] of 100%.

Molecule “L1 Cap N-terminal fragment of pGL1d2 (aa 1-603)” came in with a Curing (%) of ScVL1 in assay [2] of 100%.

B1: L1 Cap N-terminal fragment of pGL1d5 (aa 1-433) (other)
chain: MLRFVTKNSQDKSSDLFSICSDRGTFVAHNRVRTDFKFDNLVFNRVYGVSQKFTLVGNPTVCFNEGSSYLEGIAKKYLTLDGGLAIDNVLNELRSTCGIPGNAVASHAYNITSWRWYDNHVALLMNMLRAYHLQVLTEQGQYSAGDIPMYHDGHVKIKLPVTIDDTAGPTQFAWPSDRSTDSYPDWAQFSESFPSIDVPYLDVRPLTVTEVNFVLMMMSKWHRRTNLAIDYEAPQLADKFAYRHALTVQDADEWIEGDRTDDQFRPPSSKVMLSALRKYVNRNRLYNQFYTAAQLLAQIMMKPVPNCAEGYAWLMHDALVNIPKFGSIRGRYPFLLSGDAALIQATALEDWSAIMAKPELVFTYAMQVSVALNTGLYLRRVKKTGFGTTIDDSYEDGAFLQPETFVQAALACCTGQDAPLNGMSDVYVTYPDL
As for B1, the “Curing (%) of ScVL1” value in assay [3] is under 5%.

B2: L1 Cap N-terminal fragment of nonsense mutant pGL1m14 (Y485O, aa 1-484) (other)
chain: MLRFVTKNSQDKSSDLFSICSDRGTFVAHNRVRTDFKFDNLVFNRVYGVSQKFTLVGNPTVCFNEGSSYLEGIAKKYLTLDGGLAIDNVLNELRSTCGIPGNAVASHAYNITSWRWYDNHVALLMNMLRAYHLQVLTEQGQYSAGDIPMYHDGHVKIKLPVTIDDTAGPTQFAWPSDRSTDSYPDWAQFSESFPSIDVPYLDVRPLTVTEVNFVLMMMSKWHRRTNLAIDYEAPQLADKFAYRHALTVQDADEWIEGDRTDDQFRPPSSKVMLSALRKYVNRNRLYNQFYTAAQLLAQIMMKPVPNCAEGYAWLMHDALVNIPKFGSIRGRYPFLLSGDAALIQATALEDWSAIMAKPELVFTYAMQVSVALNTGLYLRRVKKTGFGTTIDDSYEDGAFLQPETFVQAALACCTGQDAPLNGMSDVYVTYPDLLEFDAVTQVPITVIEPAGYNIVDDHLVVVGVPVACSPYMIFPVAAFDTANP
For B2, the “Curing (%) of ScVL1” value in assay [3] was under 5%.

B3: L1 Cap N-terminal fragment of nonsense mutant pGL1m15 (G501O, aa 1-500) (other)
chain: MLRFVTKNSQDKSSDLFSICSDRGTFVAHNRVRTDFKFDNLVFNRVYGVSQKFTLVGNPTVCFNEGSSYLEGIAKKYLTLDGGLAIDNVLNELRSTCGIPGNAVASHAYNITSWRWYDNHVALLMNMLRAYHLQVLTEQGQYSAGDIPMYHDGHVKIKLPVTIDDTAGPTQFAWPSDRSTDSYPDWAQFSESFPSIDVPYLDVRPLTVTEVNFVLMMMSKWHRRTNLAIDYEAPQLADKFAYRHALTVQDADEWIEGDRTDDQFRPPSSKVMLSALRKYVNRNRLYNQFYTAAQLLAQIMMKPVPNCAEGYAWLMHDALVNIPKFGSIRGRYPFLLSGDAALIQATALEDWSAIMAKPELVFTYAMQVSVALNTGLYLRRVKKTGFGTTIDDSYEDGAFLQPETFVQAALACCTGQDAPLNGMSDVYVTYPDLLEFDAVTQVPITVIEPAGYNIVDDHLVVVGVPVACSPYMIFPVAAFDTANPYCGNFVIKAANKYLRK
Consider B3, for which, in assay [3], the “Curing (%) of ScVL1” value was under 5%.

B4: L1 Cap N-terminal fragment of nonsense mutant pGL1m12 (E435O, aa 1-434) (other)
chain: MLRFVTKNSQDKSSDLFSICSDRGTFVAHNRVRTDFKFDNLVFNRVYGVSQKFTLVGNPTVCFNEGSSYLEGIAKKYLTLDGGLAIDNVLNELRSTCGIPGNAVASHAYNITSWRWYDNHVALLMNMLRAYHLQVLTEQGQYSAGDIPMYHDGHVKIKLPVTIDDTAGPTQFAWPSDRSTDSYPDWAQFSESFPSIDVPYLDVRPLTVTEVNFVLMMMSKWHRRTNLAIDYEAPQLADKFAYRHALTVQDADEWIEGDRTDDQFRPPSSKVMLSALRKYVNRNRLYNQFYTAAQLLAQIMMKPVPNCAEGYAWLMHDALVNIPKFGSIRGRYPFLLSGDAALIQATALEDWSAIMAKPELVFTYAMQVSVALNTGLYLRRVKKTGFGTTIDDSYEDGAFLQPETFVQAALACCTGQDAPLNGMSDVYVTYPDLL
Turning to B4, in assay [3], the “Curing (%) of ScVL1” value is under 5%.

B5: L1 Cap N-terminal fragment of pGL1d4 (aa 1-435) (other)
chain: MLRFVTKNSQDKSSDLFSICSDRGTFVAHNRVRTDFKFDNLVFNRVYGVSQKFTLVGNPTVCFNEGSSYLEGIAKKYLTLDGGLAIDNVLNELRSTCGIPGNAVASHAYNITSWRWYDNHVALLMNMLRAYHLQVLTEQGQYSAGDIPMYHDGHVKIKLPVTIDDTAGPTQFAWPSDRSTDSYPDWAQFSESFPSIDVPYLDVRPLTVTEVNFVLMMMSKWHRRTNLAIDYEAPQLADKFAYRHALTVQDADEWIEGDRTDDQFRPPSSKVMLSALRKYVNRNRLYNQFYTAAQLLAQIMMKPVPNCAEGYAWLMHDALVNIPKFGSIRGRYPFLLSGDAALIQATALEDWSAIMAKPELVFTYAMQVSVALNTGLYLRRVKKTGFGTTIDDSYEDGAFLQPETFVQAALACCTGQDAPLNGMSDVYVTYPDLLE
Take B5: the “Curing (%) of ScVL1” value in assay [3] is under 5%.

B6: L1 Cap N-terminal fragment of nonsense mutant pGL1m13 (Q10O, aa 1-9) (peptide)
chain: MLRFVTKNS
B6: the “Curing (%) of ScVL1” value in assay [3] is under 5%.

The record behind these values is patent US5831013, “Capsid polypeptides and use to inhibit viral packaging” (The Research Foundation of State University of New York, dated 1998).
